Measurements as given in paper PMC3184076 (PLoS ONE, 2011).

Key:
[1] = target: T1, JR-FL gp140 (HIV-1 subtype B, JR-FL, UniProt Q75760, strain); experiment: ELISA
T1 construct: also called JR-FL gp140 envelope protein; source: generated as described [41]

[2] = target: MPER26 peptide (HIV-1, strain  (residues …, biotin on the N-terminus)); experiment: SPR; settings: both partners purified
[3] = target: T2, MPR.03 biotinylated peptide (HIV-1, synthetic MPER sequence, strain …); experiment: SPR; settings: both partners purified
T2 construct: also called MPR.03 peptide; MPER peptide; source: synthetic peptide, bought: CPC Scientific Inc

[4] = target: T3, MPER656 peptide (HIV-1, strain  (residues …)); experiment: SPR; settings: both partners purified
T3 construct: also called wild type MPER656 peptide
T3 chain: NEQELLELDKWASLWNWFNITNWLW

[5] = target: T4, Centromere B autoantigen (Homo sapiens (assumed), UniProt P07199); experiment: AtheNA Multi-Lyte ANA II Test Kit (autoantigen immunoassay); kit of Zeus Scientific, per the manufacturer's instructions
T4 construct: also called centromere B autoantigens
T4 sequence (P07199 whole entry): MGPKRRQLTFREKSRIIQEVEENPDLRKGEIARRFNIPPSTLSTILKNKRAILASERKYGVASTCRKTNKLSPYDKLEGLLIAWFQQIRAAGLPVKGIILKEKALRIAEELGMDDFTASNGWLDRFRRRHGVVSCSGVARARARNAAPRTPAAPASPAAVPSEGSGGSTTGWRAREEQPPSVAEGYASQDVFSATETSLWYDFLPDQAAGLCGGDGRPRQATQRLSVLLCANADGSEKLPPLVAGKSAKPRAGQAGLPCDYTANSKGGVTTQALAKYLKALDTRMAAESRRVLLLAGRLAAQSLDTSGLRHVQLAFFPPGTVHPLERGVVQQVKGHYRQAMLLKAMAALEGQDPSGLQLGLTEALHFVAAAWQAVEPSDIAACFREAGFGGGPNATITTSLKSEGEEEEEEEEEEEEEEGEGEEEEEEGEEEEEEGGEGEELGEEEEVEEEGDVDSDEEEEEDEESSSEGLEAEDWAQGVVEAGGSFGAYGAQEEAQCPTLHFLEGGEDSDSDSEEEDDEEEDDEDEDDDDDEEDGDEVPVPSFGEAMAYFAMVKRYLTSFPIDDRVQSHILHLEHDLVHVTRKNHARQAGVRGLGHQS

B1: CAP206-CH12 recombinant human monoclonal antibody (antibody, V domains shown)
VH: QVQLVQSGAEVKKPGSSVKLSCKASGGTFGSYSVTWVRQAPGQTFEWVGRIVPWVGVPNYAPKFQGRVTITADKSSTVYMELTSLRFEDTAVYYCATAYEASGLSYYYYMDDWGKGTTVTVSS
VL: EIVLTQSPGTLSLSPGERATLSCRASQSVTSSYLAWFRHKPGQAPRLLIYGASYRGTGIPDRISGSGSGTDFTLTISRLEPEDFAVYYCQHYGGSPGMYTFGQGTRLEIK
notes: also called CAP206-CH12 mAb; CAP-206-CH12 mAb
In the case of B1, the binding result [1] is reported as “no binding”, the Kd [2] is reported as 4.95 nM and the Kd [3] is reported as 7.3 nM. For the same binder, the Kd [4] was 5.15 nM and the binding result [5] was “binds”.
